What all share (test): SPR; Biacore S200; Bcl-2 family proteins immobilised on CM5 (amine coupling or His-Capture Kit); peptides and flag-tagged proteins as analytes, single-cycle kinetics, HBS-EP, 25 °C; 1:1 Langmuir model; absence of binding probed at 100 nM and 3 µM
One assay has as its target Bcl-2 (human) (UniProt P10415).
The target of the next assay is Bcl-xL (human) (UniProt Q07817).
Assay [1] addresses His-tagged human Mcl-1 (human) (UniProt Q07820).

Bcl-xL (human), sequence (Q07817 whole entry): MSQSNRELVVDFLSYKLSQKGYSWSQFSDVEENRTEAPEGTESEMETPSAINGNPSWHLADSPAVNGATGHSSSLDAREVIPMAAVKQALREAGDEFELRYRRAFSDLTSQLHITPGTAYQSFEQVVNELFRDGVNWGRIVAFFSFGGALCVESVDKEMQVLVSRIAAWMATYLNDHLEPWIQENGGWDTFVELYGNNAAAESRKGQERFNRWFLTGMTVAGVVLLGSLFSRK
His-tagged human Mcl-1 (human), sequence (Q07820 whole entry): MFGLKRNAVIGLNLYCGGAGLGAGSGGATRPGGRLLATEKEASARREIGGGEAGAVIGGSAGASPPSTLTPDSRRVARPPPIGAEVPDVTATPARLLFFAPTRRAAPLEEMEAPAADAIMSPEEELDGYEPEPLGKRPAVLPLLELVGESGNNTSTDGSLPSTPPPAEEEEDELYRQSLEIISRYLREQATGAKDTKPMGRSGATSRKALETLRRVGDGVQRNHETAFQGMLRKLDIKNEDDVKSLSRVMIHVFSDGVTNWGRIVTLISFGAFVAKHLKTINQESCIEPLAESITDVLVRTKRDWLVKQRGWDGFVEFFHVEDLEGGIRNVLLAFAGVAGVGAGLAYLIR

A word on the Kd: it is the constant that tells how readily two partners part at equilibrium. Read a high Kd as a looser complex. With ESQEDIIRNIARHLAQVGDSMDRSI [Bid BH3 peptide (25-mer, residues 77-101)], the Kd with Bcl-2 (human) came to 96.7 nM; in the assay with Bcl-xL (human), 7.12 nM; in assay [1], 12.8 nM.

ESQEDIIRNIIRHLAQVGDSMDRSI [Bid (A87I) peptide]: the Kd was determined as 158 nM with Bcl-2 (human) and 28.5 nM with Bcl-xL (human).
